Results from PMC6511849 (Nucleic Acids Research, 2019).
Non-standard residues stand in square brackets, D forms with d. No end group written: not given here. *: point of attachment. FITC = O=C1OC2(c3ccc(O)cc3Oc3cc(O)ccc32)c2ccc(NC(=S)*)cc21; pS = N[C@@H](COP(=O)(O)O)C(=O)O; Ahx = NCCCCCC(=O)O

T1: CPSF6 D23-4Glu peptide (human, UniProt Q16630 509-528, K510E | R512E | R522E | R524E, FITC-Ahx label)
T1 peptide: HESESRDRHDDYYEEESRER

T2: ERERERER backbone with Tyr at position 1
T2 peptide: {FITC-Ahx}-YRERERER

T3: CPSF6 D2P-D3 peptide (human, UniProt Q16630 509-528)
T3 peptide: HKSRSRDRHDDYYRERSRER

B1: transportin 3 (TNPO3) (natural protein)
chain: MEGAKPTLQLVYQAVQALYHDPDPSGKERASFWLGELQRSVHAWEISDQLLQIRQDVESCYFAAQTMKMKIQTSFYELPTDSHASLRDSLLTHIQNLKDLSPVIVTQLALAIADLALQMPSWKGCVQTLVEKYSNDVTSLPFLLEILTVLPEEVHSRSLRIGANRRTEIIEDLAFYSSTVVSLLMTCVEKAGTDEKMLMKVFRCLGSWFNLGVLDSNFMANNKLLALLFEVLQQDKTSSNLHEAASDCVCSALYAIENVETNLPLAMQLFQGVLTLETAYHMAVAREDLDKVLNYCRIFTELCETFLEKIVCTPGQGLGDLRTLELLLICAGHPQYEVVEISFNFWYRLGEHLYKTNDEVIHGIFKAYIQRLLHALARHCQLEPDHEGVPEETDDFGEFRMRVSDLVKDLIFLIGSMECFAQLYSTLKEGNPPWEVTEAVLFIMAAIAKSVDPENNPTLVEVLEGVVRLPETVHTAVRYTSIELVGEMSEVVDRNPQFLDPVLGYLMKGLCEKPLASAAAKAIHNICSVCRDHMAQHFNGLLEIARSLDSFLLSPEAAVGLLKGTALVLARLPLDKITECLSELCSVQVMALKKLLSQEPSNGISSDPTVFLDRLAVIFRHTNPIVENGQTHPCQKVIQEIWPVLSETLNKHRADNRIVERCCRCLRFAVRCVGKGSAALLQPLVTQMVNVYHVHQHSCFLYLGSILVDEYGMEEGCRQGLLDMLQALCIPTFQLLEQQNGLQNHPDTVDDLFRLATRFIQRSPVTLLRSQVVIPILQWAIASTTLDHRDANCSVMRFLRDLIHTGVANDHEEDFELRKELIGQVMNQLGQQLVSQLLHTCCFCLPPYTLPDVAEVLWEIMQVDRPTFCRWLENSLKGLPKETTVGAVTVTHKQLTDFHKQVTSAEECKQVCWALRDFTRLFR
B2: D3P peptide with Glu for Tyr at position 1 (ERERERER backbone with phosphoserine at position 5) (peptide)
peptide: {FITC-Ahx}-ERER[pS]RER

What was measured:
[1] = target: TNPO3 (UniProt Q9Y5L0); test: fluorescence polarisation titration; conditions: reference: unmodified D23 peptide
[2] = target: SRSF1 RSP peptide (phosphorylated 8-mer); test: fluorescence polarisation
[3] = target: SRSF1 RS peptide (unmodified 8-mer); test: fluorescence polarisation
[4] = target: CPSF6 D1 peptide (unmodified 8-mer) (human); test: fluorescence polarisation
[5] = target: CPSF6 D2 peptide (unmodified 8-mer) (human); test: fluorescence polarisation
[6] = target: ER/S peptide (D3 peptide with Glu for Tyr at position 1) (human) (UniProt Q16630); test: fluorescence polarisation
ER/S peptide (D3 peptide with Glu for Tyr at position 1) (human), sequence (Q16630 whole entry, looked up, tested part not stated): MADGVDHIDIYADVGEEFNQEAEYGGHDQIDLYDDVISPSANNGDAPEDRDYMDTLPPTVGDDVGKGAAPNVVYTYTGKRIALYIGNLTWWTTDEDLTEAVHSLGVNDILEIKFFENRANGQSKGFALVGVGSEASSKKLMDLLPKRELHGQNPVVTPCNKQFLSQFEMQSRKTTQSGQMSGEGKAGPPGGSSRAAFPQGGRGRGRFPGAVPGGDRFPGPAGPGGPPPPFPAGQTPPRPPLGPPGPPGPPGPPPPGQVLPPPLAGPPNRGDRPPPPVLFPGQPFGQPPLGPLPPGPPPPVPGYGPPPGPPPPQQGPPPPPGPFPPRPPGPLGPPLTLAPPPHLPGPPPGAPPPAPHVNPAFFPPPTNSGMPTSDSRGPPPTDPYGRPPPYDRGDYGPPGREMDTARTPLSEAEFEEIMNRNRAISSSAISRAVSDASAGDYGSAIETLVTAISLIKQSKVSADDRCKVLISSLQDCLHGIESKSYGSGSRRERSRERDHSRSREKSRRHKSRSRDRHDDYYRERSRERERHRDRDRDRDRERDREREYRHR

[7] = target: GST-RSLD-WT, non-phosphorylated (expressed without CLK1) (human); test: pull-down
GST-RSLD-WT, non-phosphorylated (expressed without CLK1) (human), sequence (Q16630 whole entry): as the sequence (Q16630 whole entry, looked up, tested part not stated) above

[8] = target: B2; test: fluorescence polarisation
[9] = target: T1, CPSF6 D23-4Glu peptide; test: fluorescence polarisation
[10] = target: T2, ERERERER backbone with Tyr at position 1; test: fluorescence polarisation
[11] = target: T3, CPSF6 D2P-D3 peptide; test: fluorescence polarisation
[12] = target: B1; test: fluorescence polarisation

CPSF6 D2-D3 region 20-mer (D23) (from UniProt Q16630) D2P-D3 peptide
fold change ([1]; sites S511,S513): stronger

CPSF6 D2-D3 region 20-mer (D23) (from UniProt Q16630) D2P-D3P peptide
fold change ([1]; sites S511,S513,S525): stronger

CPSF6 D2-D3 region 20-mer (D23) (from UniProt Q16630) D2-D3P peptide
fold change ([1]; sites S525): stronger

B1
Kd [2]: 1.3 µM
Kd [3]: > 1000 µM
Kd [4]: 141 µM
Kd [5]: > 1000 µM
Kd [6]: > 1000 µM
percent of input TNPO3 recovered [7]: 30%
fold increase of affinity against the ERERERER backbone [8]: ~5 fold
fold reduction of affinity against the D23 peptide [9]: ~25 fold
fold increase of affinity against the ERERERER backbone [10]: ~10 fold
fold increase of affinity against the D23 peptide [11]: ~3.3 fold

B2
Kd [12]: 17.1 µM
